B1: mIL-7 (ligand, mouse, UniProt P10168 26-154, looked up)
chain: ECHIKDKEGKAYESVLMISIDELDKMTGTDSNCPNNEPNFFRKHVCDDTKEAAFLNRAARKLKQFLKMNISEEFNVHLLTVSQGTQTLVNCTSKEEKNVKEQKKNDACFLKRLLREIKTCWNKILKGSI
B2: mIL-2 (ligand, mouse, UniProt P04351 21-169, looked up)
chain: APTSSSTSSSTAEAQQQQQQQQQQQQHLEQLLMDLQELLSRMENYRNLKLPRMLTFKFYLPKQATELKDLQCLEDELGPLRHVLDLTQSKSFQLEDAENFISNIRVTVVKLKGSDNTFECQFDDESATVVDFLRRWIAFCQSIISTSPQ

Key:
[1] = molecular target: T1, murine MU-1 Ig fusion protein (murine, UniProt Q9JHX3 20-236); experiment: Biacore, MU-1 Ig fusion immobilized on chip
T1 construct: It includes the predicted leader 1-19, the transmembrane domain 237-253 and the cytoplasmic domain; Immobilized on a Biacore chip; not shown: Ig part of the fusion

[2] = molecular target: T2, human MU-1 Ig fusion protein (human, UniProt Q9HBE5 20-235); experiment: Biacore, MU-1 Ig fusion immobilized on chip
T2 construct: A soluble fusion would most likely hold only the extracellular part; Immobilized on a Biacore chip; not shown: Ig part of the fusion
T2 sequence (Q9HBE5 20-235): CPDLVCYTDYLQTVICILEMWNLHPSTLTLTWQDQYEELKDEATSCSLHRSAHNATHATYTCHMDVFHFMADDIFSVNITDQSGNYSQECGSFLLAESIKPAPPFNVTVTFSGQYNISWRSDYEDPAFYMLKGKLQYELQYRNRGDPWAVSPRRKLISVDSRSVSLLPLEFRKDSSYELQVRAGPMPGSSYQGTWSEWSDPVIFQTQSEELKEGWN

| Binder | binding result [1] | binding result [2] |
| --- | --- | --- |
| B1 | no binding | no binding |
| B2 | no binding | no binding |
